Molecular target: T1, FKBP15 (human, UniProt Q5T1M5 1-1219, limits assumed)
T1 sequence (looked up): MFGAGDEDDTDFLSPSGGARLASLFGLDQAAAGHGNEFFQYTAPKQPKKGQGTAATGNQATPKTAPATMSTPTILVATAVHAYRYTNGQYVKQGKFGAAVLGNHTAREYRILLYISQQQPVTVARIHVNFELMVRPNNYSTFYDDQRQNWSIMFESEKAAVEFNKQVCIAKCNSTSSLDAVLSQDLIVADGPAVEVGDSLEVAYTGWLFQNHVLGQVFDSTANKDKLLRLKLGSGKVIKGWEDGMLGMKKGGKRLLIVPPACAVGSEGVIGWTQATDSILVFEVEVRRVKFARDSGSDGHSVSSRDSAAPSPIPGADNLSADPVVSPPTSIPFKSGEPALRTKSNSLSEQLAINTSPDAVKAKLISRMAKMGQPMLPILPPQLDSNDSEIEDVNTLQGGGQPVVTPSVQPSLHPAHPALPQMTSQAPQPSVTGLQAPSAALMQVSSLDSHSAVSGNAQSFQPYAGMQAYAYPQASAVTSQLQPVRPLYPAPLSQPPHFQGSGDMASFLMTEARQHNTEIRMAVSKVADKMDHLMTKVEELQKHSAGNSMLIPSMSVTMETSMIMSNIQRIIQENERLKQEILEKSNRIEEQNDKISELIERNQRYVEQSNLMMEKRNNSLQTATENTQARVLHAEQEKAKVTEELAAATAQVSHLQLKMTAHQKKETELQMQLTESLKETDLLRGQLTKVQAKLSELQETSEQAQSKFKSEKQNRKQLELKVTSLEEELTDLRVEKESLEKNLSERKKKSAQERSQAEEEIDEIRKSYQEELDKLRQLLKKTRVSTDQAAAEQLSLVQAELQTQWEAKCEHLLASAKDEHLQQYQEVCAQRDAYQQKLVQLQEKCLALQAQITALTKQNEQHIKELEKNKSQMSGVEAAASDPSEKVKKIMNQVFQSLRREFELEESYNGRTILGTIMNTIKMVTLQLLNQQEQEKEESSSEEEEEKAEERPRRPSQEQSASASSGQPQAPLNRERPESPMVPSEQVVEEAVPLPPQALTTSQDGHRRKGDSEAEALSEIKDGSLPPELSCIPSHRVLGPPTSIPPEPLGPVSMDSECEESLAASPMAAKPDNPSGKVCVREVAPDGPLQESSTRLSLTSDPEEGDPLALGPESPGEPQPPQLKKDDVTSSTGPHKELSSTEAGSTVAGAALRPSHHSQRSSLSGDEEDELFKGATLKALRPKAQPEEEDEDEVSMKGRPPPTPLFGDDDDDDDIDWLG
Experiment: IP/MS, LZTR1 wild type-FLAG, U87
Outline: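 Read-out: spectral counts from LC-MS/MS (Orbitrap Fusion) after MaxQuant identification. Variable modifications were Met oxidation, protein N-terminal acetylation and N/Q deamidation.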

B1: LZTR1-FLAG (other, human, UniProt Q8N653 1-840, looked up)
chain: MAGPGSTGGQIGAAALAGGARSKVAPSVDFDHSCSDSVEYLTLNFGPFETVHRWRRLPPCDEFVGARRSKHTVVAYKDAIYVFGGDNGKTMLNDLLRFDVKDCSWCRAFTTGTPPAPRYHHSAVVYGSSMFVFGGYTGDIYSNSNLKNKNDLFEYKFATGQWTEWKIEGRLPVARSAHGATVYSDKLWIFAGYDGNARLNDMWTIGLQDRELTCWEEVAQSGEIPPSCCNFPVAVCRDKMFVFSGQSGAKITNNLFQFEFKDKTWTRIPTEHLLRGSPPPPQRRYGHTMVAFDRHLYVFGGAADNTLPNELHCYDVDFQTWEVVQPSSDSEVGGAEVPERACASEEVPTLTYEERVGFKKSRDVFGLDFGTTSAKQPTQPASELPSGRLFHAAAVISDAMYIFGGTVDNNIRSGEMYRFQFSCYPKCTLHEDYGRLWESRQFCDVEFVLGEKEECVQGHVAIVTARSRWLRRKITQARERLAQKLEQEAAPVPREAPGVAAGGARPPLLHVAIREAEARPFEVLMQFLYTDKIKYPRKGHVEDVLLIMDVYKLALSFQLCRLEQLCRQYIEASVDLQNVLVVCESAARLQLSQLKEHCLNFVVKESHFNQVIMMKEFERLSSPLIVEIVRRKQQPPPRTPLDQPVDIGTSLIQDMKAYLEGAGAEFCDITLLLDGHPRPAHKAILAARSSYFEAMFRSFMPEDGQVNISIGEMVPSRQAFESMLRYIYYGEVNMPPEDSLYLFAAPYYYGFYNNRLQAYCKQNLEMNVTVQNVLQILEAADKTQALDMKRHCLHIIVHQFTKVSKLPTLRSLSQQLLLDIIDSLASHISDKQCAELGADI
notes: Expressed in HEK 293T, HeLa or U87 cells; used as cell lysate; also called LZTR1 wild type-FLAG; LZTR1 WT; not shown: FLAG tag at the C-terminus
  binding result: binds
